Measurements as given in a protein production outcome set (Wang et al. 2014).

assay: label from the status in PepcDB records

Sequence	protein production
EELEYKGMNTLQISNVDDLISFYQYADDRIPLISGHRGGRGKGYPENSMETFENTLSYTPATFEIDPRLTKDSVIVLFHDDTLERTSNGTGKVSDYTWEELQNFRLKDPEGNITNYRIPTLEEAIRWARGKTILILDKKDVPMERTAQLITDMQAEPYVMITVHDGASARFFYEKNPNFMFEAFVKTKEAVQDYEDNGIPWSHIMAYVGPKITPEVREVIDMLHERGVMCMISTAPSDDKLSTPESRAEAYRMIIRQGVDIIESDRPIEVAEAISSLIPVSSSKGKFFSTL	not failed
EENPRGRFAITLPHSLESNVVMPAIEQLCIEYPGIEPEIIVSDSSLDLVENNLDVAIHAGDLPDSSYRALPIGTITEIFCATPLYLNKNFTPQKLSDLAQLKWI	failed
EHFNDMIEKRVKSEIRNQVDLKKPMVRISVAISGGKDSSVTLYLLHKILSKRRNVELTAFTVDEGISGYRPAGLESAIKLTKMLGVDHSIIRFQDSFGMTLDSIVGADASRIPCSYCGPLRRKLINEMAERQNADYVALGLNLDDYSQSILMNVAKGDYDRLLRMSPQKEAKDGLVRRIAPLRSVLEKEVVLYAVINGIPFDSSWC	failed
EHGLLVHKAVDKWTTEEVVLWLEQLGPWASLYRDRFLSERVNGRLLLTLTEEEFSRAPYTIENSSHRRVILTELERVR	not failed
EKMTRDEIAYMLTNSEETLDADEIEMLQGVFSLDELMAREVMVPRTDAFMVDIQDDSQAIIQSILKQNYSRIPVYDGDKDNVIGIIHTKSLLKAGFVDGFDNIVWKRILQDPLFVPETIFVDDLLKELRNTQRQMAILLDEYGGMAGLVTLEDLLEEIVGEID	not failed
ELPSVEELTIILPEDIELKPLGMVSSIIEQLVIIESMTNLPPVNEETVIFKSDRQAAGKIFEIFGPVAHPFYVLRFNSSDHIESKGIKIKETMYFA	not failed
EMRKFLVVLDDSRECLNAMRFAAMRAAHTGGGVAILSIIPPDEFNHWIGVGEVMREEARERIHAHFEVFAKWMRDKQGVEPELVIREGEAVPEIIAHVQEDPEIGVLVLGAGTDKKGPGPLVSQLSRSSGSLPIPITIVPGDLSKE	failed
ENGRYEYIVIGSEAAGVGLVRELTAAGKKVLAVDKSKEKIELLEDEGFDAVIADPTDESFYRSLDLEGVSAVLITGSDDEFNLKILKALRSVSDVYAIVRVSSPKKKEEFEEAGANLVVLVADAVKQAFMDKIKKMETL	not failed
EPLTIREYRPEDLEALLPLYEQLGYPTRTDELRDRLAGLLSHEDYHLLVAECDGQLVAFIGYARMYFFEHDGSYYRILALAVS	failed
EPPDGVRIVPVTDRAGVDLVADVHEKAFGTDSTRMRHQLLAQVTDDPDAVVAVVALAGDEPVSAARMELVPGTRFAGLWGGGTVEGERGRGIYRALVAHRAKVAADRGYRYVQVDATSQSRPVLARLGFEPLTTTTPYVS	failed
EQTTAADLPLTLAIAREVGNLLLTDSLLAETNRHLNQLNALLESMDDGVISWDEQGNLQFINAQAARVLRLDATASQGRAITELLTLPAVLQQAIKLAHPLKHVEATFESQHQFIDAVITLKPIIETQGTSFILLLHP	failed
ERFQFAGSGGHQLAAALDLPDAQPLAYALFAHCFTCSKDNLAARRISAAMAARGIAVLRFDFTGLGASEGEFENATFSSNVADLVLAADHLRATHRAPTLLIGHSLGGAAVLAAAAQIPEAKAIATIAAPSDPSHVTGLFADDIETIRTEGRVNVSLAGRPFTIKREFLDDIAEHNLMAEIGKLHKALLILHAPTDDTVGIDNATKIFLAAKHPKSFVSLDHADHLLSDRRDANYAAGVIAAWAQRYIDAEPPAPTAGAPEVPR	failed
ERRAPRKGNTLYVYGEDMTPTLLRGAFSPFGNIIDLSMDPPRNCAFVTYEKMESADQAVAELNGTQVESVQLKVNIARKQPMLD	not failed
ERYMQDFDLIFKELERWGPGSESDTLKALQKVPNKSMTLLEIGCGQGIATELFARHTDAMITAVDNEEFALKHLMEKMQQNGLEDKITTVCADMAKMPFETKSFDLIWSEGSAYIMGVQNALKAWKPLLSEDGVLVVSDLVWSTDKPSEGALSFWKKEYPDMVSVSERIKHAQQAGYEVIEHFSLSDAAWEAYYHPLIERLDTLKDKLIDSPVLIDFENEITAFKQRANEFDYEIFILRSR	failed
ESLKAGSSWQCDTCLLQNKVTDNKCIACQAAKLSPRDTAKQTGIETPNKSGKTTLSASGTGFGDKFKPVIGTWDCDTCLVQNKPEAIKCVACETPKPGTCVKRALTLTVV	failed
ESLQQVVMAYFGVQFKSEQKAIALKAMQHIVQSFSLDNGPQNHDITHHTDNQGYENYIVVGYWRDPGAYCRWFRSTEVSHWWDSDERLNDGIGYFREIVIPRADQFETLYAFKEDLPGVGAVMDDISDDIQEHGYWGSARERF	not failed
ETDKTAISVREIADNTYIVLGTMTLNDFNEYFETDLESDNVDTIAGFYLTGVGTIPSQEEKEHFEVESNGKHLELINDKVKDGRVTKLKILVSE	failed
ETLPPRQRQRALALPLRLNPRTVALGAQWRQEAGADDAAIVQRALNWVRTEFTYTLAATKRPGLHTVDEFLFRDKAGFCEQFSSSFVVLMRASGIPARVVTGYVGGIYNNLGHYWVIRRMDAHAWAEVWLPQRGWVRVDPTAAVAPERIRDTLEDRLAQNNNDASIDSHWRLADIGDWLRHSWNNLVLGFDAKRQQQLLHSFGINHLYVSQLMMLFIAFTSVSLGLMAWWLARGERERDALLRAWHRLDRHYARLGLGRTRHEPALVW	failed
EVVVAVASAPVDVAQVGRRRGRLAVIGLGPGAAELMVPAVKAELAQAEDVLGYETYVRMAGPFRGDQVLHCTDNREEMQRARHAFELAAQGRSVAVVSSGDPGVFAMAAAVLEALHESSDPTWHRVDLQILPGV	failed

Sequence	protein production
FAMESYFKGDSGEAELLAVAHKVQSDAWALQKAAGIAVIGLDGTLYDQVLDTITWLGAIPPRFKHLSGLQRYYAMARGGAALDMSKFFDTNYHYLVPELGPDVLGPATAAGAPLQPDFSGPLDKLARGQAVVGRERAVPILIGPVTFVSLSRGCELPLDQAVARLLPTYCALLQQLAAAGAPEVQLHEPVLATSEGAGMRAEFETAYAQMAQAAGSVPLHLVTYYDDLGAAYPWAVQLPVAAVTLDFLGPPGAAVPSQTLALLQQHGFPADKRLGAGVVDGRSVWKDDGTAVALLRALLDTGAVSSDRLVVTSSAPLQHLPYDLGLELEAPKTPEAEPHLPPALAARLGFAKQKVEEIVSVARLAASPAAAAAAAGHGAVVQLQRLQQGKGVEDHTAD	failed
FDKLGNSAAIQEMNREVEAAAKRTSPVFLTGEAGSPFETVARYFHKNGTPWVSPARVEYLIDMPMELLQKAEGGVLYVGDIAQYSRNIQTGITFIIGKAERCRVRVIASCSYAAGSDGISCEEKLAGLFSESVVRIPPLS	not failed
FHSYTGELKIGASVASGQQVLRPALGKFMRQYPDLKVQLNLVNRRVDFIEEGFDVVIRIGQLNDSMLIAKKLGAINRKIFASPSYLAKQGNPDKVEQLTEHQLLIMNP	failed
FKAVFISDTHLGTKDSKASLLLEFIKEIETKELYLVGDIIDGWSLKRKWIWLQPHSDVIQKILKAARKGVRVTYILGNHDEFIRPFLPLALGDHIRVVDEATYKAKNKKRYKIVHGDLYDSITMTKKWLAILGDNGYQFLLRLNDPINTLRQRLGFRRYWSFSQFIKDHVKQAVAYISDFEKILVAHAREEKFDGIICGHIHKAEIRDIEGITYMNCGDWVESCTALVETLEGEFKIIRW	failed
FKDLRLVSYTLLFDFIVSRVIDLIGEGGYAGKGFMIITKRPDQLAKAINDDLGRGVTFISGQGYYSKENLKIIYCIVGRNEIVKTKEMIHRIDPQAFITITEAHEILGEGFTFEKE	failed
FKVPPFQDCILSFLGFSDEEKHSMEEMTEMQGGSYLPVGDERCTHLIVEENTVKDLPFEPSKKLFVVKQEWFWGSIQMDARAGETMYLYEKANTPE	not failed
FLILLRKTLEQLQEKDTGNIFSEPVPLSEVPDYLDHIKKPMDFFTMKQNLEAYRYLNFDDFEEDFNLIVSNCLKYNAKDTIFYRAAVRLREQGGAVLRQARRQAEKMG	not failed
FLVTPEGRRIAYRLTDGEGPAVVFCGGFKSDMEGTKALHLQAWAERTGRAFLRFDYSGHGQSEGAFLDGSIGDWFEDARAVCGLLAGPLLLVGSSMGGWISLLLAREMGARVAGLVGIAAAPDFTEDSMWGGFNAAQREALQRAGQVILPSDYSEEPYIITRRLIEEGRRRLVLRDPLELGFPVRLLQGTADVDVPPSVALRLLDHATGPDIRLTLVKGADHRFSTPECLRMIEQAVEELL	failed
FQKYQYPIYYGNAIFLADSPKKIDTPLYSPIKIAFEKALKNAKDSVFIASSYFIPGKKMMKIFKNQISKGIELNILTNSLSSTDAIVVYGAWERYRNQLVRMGANVYEIRNDFFNRQIKGRFSTKHSLHGKTIVFDDNLTLLGSFNIDPRSAYINTESAVLFDNPSFAKRVRLSLKDHAQQSWHLVVYRHRVIWEAVEEGILIHEKTSPDTSFFLRLIKEWSKVLPEREL	failed
FSIGVTGVMSAGKSTMLNAILQREILGTSVIPETANLTILRFDQNERAIVRFWNRHEWEMIAQSAQFDEGIDYFMKESLTVFGTVLHEYITQEGRTYEIPLEELSTYTSAKHPSKLCNLVKSVEIFTPLEFLDDGVEIVDTPGLDDPLTQREEITKEYLARCDVMLHLMNAAQPATQKDVDFIIDALIYQNVSRLLVILTRADSLTPQE	failed
FTCPITKEEMKKPVKNKVCGHTYEEDAIVRMIESRQKRKKKAYCPQIGCSHTDIRKSDLIQDEALRRAIENHNKKRHRHSE	not failed
GDGNITTENIPVSEYDCLELEGGGMVVNYTQSDAPEGLEIKTDRNIFEKYEFNVENHKLKIRPKKEFRKHTNFRPTEFMVTANSRNLKKLAAAGSTHVNINSPLQAEEFEAGLAGSGIIQFHDTASFTNLKIEIAGSGDFVGHKVYCEELNGDMAGSNTIVLGGTVGIAEFSIAGSGTVRAFDCTMDELECKIAGSGDIEAFVVNKIKAEIAGSGSVKYKGDPQDIQKKVMGSGKIEKVE	not failed
GEVVLKMKVEGMTCHSCTSTIEGKIGKLQGVQRIKVSLDNQEATIVYQPHLISVEEMKKQIEAMGFPAFVKKIEGR	not failed
GFVCDDFPKPQITVQPETQSAIKGSDVSFTCSAASSSDSPMTFAWKKDNEALQDAEMENYAHLRAQGGELMEYTTILRLRNVEFTSEGKYQCVISNHFGSSYSVKAKLTIN	not failed
GGLTEICRKPVSPGCISSVSDWLISIGLPMYAGTLSTAGFSTLSQVPSLSHTCLQEAGITEERHIRKLLSAARLFKLPPGPEAM	not failed
GHMAIQRRIRRVKTVQMTTNSPIHRSGSVLEPGNWQEYDPFLLLMEDIFERGTFDVHPHRGIETVTYVISGELEHFDSKAGHSTLGPGDVQWMTAGRGVVHKEDPASGSTVHSLQLWVNLPSAYKMTEPRYQNLRSKDMPVRKEEGATIRVFSGSSKGVKAPTKNIVPVTMVEMIVEPGTTVVQDLPGHYNGFLYILEGSGVFGADNIEGKAGQALFFSRHNRGEETELNVTAREKLRLLLYAGEPVNEPVVAYGPFVMNTPEQIREAIRDYQEGRFGR	not failed
GIATSDNFMQAFLNVLDQCPKLEVDIPLVKSYLAQFAARAIISELVSISELAQPLESGTHFP	failed
GKVIVLDAGHGGPDGGAVGGKDIVEKDITLEITKKVQDYLQEQGALVILTREGDYDLAQKDTKSYSRRKAEDLKKRVEIINKPDVDFFASIHLNALTSSGSKGAQTFYYRSSIENERAAKFIQAELRTSLENTNRSAKTISHVYLLKYAKTPGALIEAGFLSNVNERYMLNSEKYQQKVAAAVYRGILRYFTEKGNPPE	failed
